The target of the test is HA-NEK7 (mouse NIMA-related kinase 7, wild type) (mouse, UniProt Q9ES74 1-302). Description: BLI. A general note: In BLI a coated tip is dipped into the sample, and binding shifts an interference pattern.

These results are taken from paper PMC12032302 (2025).

By Kd is commonly meant the concentration at which binding is half-saturated. Lower therefore signals higher affinity.

HA-NEK7 (mouse NIMA-related kinase 7, wild type), sequence (Q9ES74 whole entry): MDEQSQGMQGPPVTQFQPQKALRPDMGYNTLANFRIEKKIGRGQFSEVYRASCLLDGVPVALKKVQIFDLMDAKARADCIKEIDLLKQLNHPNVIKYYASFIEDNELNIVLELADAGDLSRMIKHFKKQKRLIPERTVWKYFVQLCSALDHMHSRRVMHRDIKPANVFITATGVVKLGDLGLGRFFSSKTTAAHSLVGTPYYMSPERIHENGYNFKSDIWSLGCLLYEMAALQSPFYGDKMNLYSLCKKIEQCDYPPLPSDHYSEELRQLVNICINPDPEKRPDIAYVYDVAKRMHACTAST

KLVALKTNGDGNCLMHAACQYMWGVQDTD [A20-derived peptide P-II] had a Kd of 197 µM.
